Measured values from the supplement of paper PMC9112550, “Optimization of the antimicrobial peptide Bac7 by deep mutational scanning” (BMC Biology, 2022).

Tested on: Escherichia coli TOP10
Test: shrunken log2 fold change of peptide-encoding DNA abundance (4.5 h post-induction vs induction); higher = less antimicrobial activity (less host growth inhibition)
Settings: time post-induction: 4.5 h; library: site-saturation at positions 5, 18, 19, 20
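Note: peptides expressed intracellularly from a pBAD plasmid library in pooled LB shake-flask culture, induced with 0.3% L-arabinose, DNA abundance read by NGS, three biological replicates, DESeq2 with apeglm shrinkage.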

Row | Sequence | shrunken log2 fold change
1 | RRIRERPPRLPRPRPRPENYPRP | 2
2 | RRIRERPPRLPRPRPRPEPEPRP | 0.475
3 | RRIRERPPRLPRPRPRPEQCPRP | -0.0274
4 | RRIRERPPRLPRPRPRPERCPRP | 0.125
5 | RRIRERPPRLPRPRPRPERHPRP | -0.152
6 | RRIRERPPRLPRPRPRPESPPRP | 0.0699
7 | RRIRERPPRLPRPRPRPETPPRP | 0.784
8 | RRIRERPPRLPRPRPRPEVSPRP | 0.0769
9 | RRIRERPPRLPRPRPRPEVWPRP | 0.4
10 | RRIRERPPRLPRPRPRPEWDPRP | -0.105
11 | RRIRERPPRLPRPRPRPEYNPRP | -0.274
12 | RRIRERPPRLPRPRPRPFATPRP | 0.119
13 | RRIRERPPRLPRPRPRPFCTPRP | -0.304
14 | RRIRERPPRLPRPRPRPFDVPRP | -0.0685
15 | RRIRERPPRLPRPRPRPFFAPRP | 0.848
16 | RRIRERPPRLPRPRPRPFFSPRP | -0.358
17 | RRIRERPPRLPRPRPRPFLDPRP | -0.318
18 | RRIRERPPRLPRPRPRPFMMPRP | -0.584
19 | RRIRERPPRLPRPRPRPFMVPRP | -0.599
20 | RRIRERPPRLPRPRPRPFNSPRP | -0.225
21 | RRIRERPPRLPRPRPRPFNWPRP | 0.00763
22 | RRIRERPPRLPRPRPRPFPAPRP | -0.0357
23 | RRIRERPPRLPRPRPRPFPWPRP | -0.0723
24 | RRIRERPPRLPRPRPRPFQAPRP | -0.215
25 | RRIRERPPRLPRPRPRPFQHPRP | -0.252

Row | Sequence | shrunken log2 fold change
26 | RRIRERPPRLPRPRPRPFQWPRP | 0.0371
27 | RRIRERPPRLPRPRPRPFRNPRP | -0.105
28 | RRIRERPPRLPRPRPRPFSGPRP | -0.55
29 | RRIRERPPRLPRPRPRPFSQPRP | -0.347
30 | RRIRERPPRLPRPRPRPFTAPRP | -0.227
31 | RRIRERPPRLPRPRPRPFVKPRP | -0.0102
32 | RRIRERPPRLPRPRPRPFVRPRP | -0.146
33 | RRIRERPPRLPRPRPRPFVSPRP | 0.176
34 | RRIRERPPRLPRPRPRPFWDPRP | 0.029
35 | RRIRERPPRLPRPRPRPFWGPRP | 0.0105
36 | RRIRERPPRLPRPRPRPFWKPRP | -0.125
37 | RRIRERPPRLPRPRPRPFYCPRP | 0.0826
38 | RRIRERPPRLPRPRPRPFYMPRP | -0.167
39 | RRIRERPPRLPRPRPRPFYYPRP | -0.618
40 | RRIRERPPRLPRPRPRPGAAPRP | 1.82
41 | RRIRERPPRLPRPRPRPGAMPRP | 0.316
42 | RRIRERPPRLPRPRPRPGDHPRP | -0.0518
43 | RRIRERPPRLPRPRPRPGDQPRP | -0.0675
44 | RRIRERPPRLPRPRPRPGEVPRP | 0.0814
45 | RRIRERPPRLPRPRPRPGFYPRP | 0.057
46 | RRIRERPPRLPRPRPRPGGKPRP | -0.0276
47 | RRIRERPPRLPRPRPRPGGMPRP | -0.02
48 | RRIRERPPRLPRPRPRPGHLPRP | -0.0138
49 | RRIRERPPRLPRPRPRPGHSPRP | -0.134
50 | RRIRERPPRLPRPRPRPGHVPRP | -0.00285

Row | Sequence | shrunken log2 fold change
51 | RRIRERPPRLPRPRPRPGMHPRP | 0.0491
52 | RRIRERPPRLPRPRPRPGNHPRP | -0.141
53 | RRIRERPPRLPRPRPRPGNLPRP | -0.17
54 | RRIRERPPRLPRPRPRPGNVPRP | -0.197
55 | RRIRERPPRLPRPRPRPGQLPRP | -0.131
56 | RRIRERPPRLPRPRPRPGRCPRP | 0.0675
57 | RRIRERPPRLPRPRPRPGREPRP | 0.241
58 | RRIRERPPRLPRPRPRPGSQPRP | -0.196
59 | RRIRERPPRLPRPRPRPGSYPRP | -0.868
60 | RRIRERPPRLPRPRPRPGTLPRP | -0.251
61 | RRIRERPPRLPRPRPRPGWIPRP | -0.105
62 | RRIRERPPRLPRPRPRPGWWPRP | -0.0125
63 | RRIRERPPRLPRPRPRPGYKPRP | -0.11
64 | RRIRERPPRLPRPRPRPHAIPRP | -0.234
65 | RRIRERPPRLPRPRPRPHAWPRP | 0.146
66 | RRIRERPPRLPRPRPRPHCTPRP | -0.0432
67 | RRIRERPPRLPRPRPRPHDCPRP | -0.715
68 | RRIRERPPRLPRPRPRPHERPRP | -0.00965
69 | RRIRERPPRLPRPRPRPHGSPRP | -0.15
70 | RRIRERPPRLPRPRPRPHHAPRP | 0.0055
71 | RRIRERPPRLPRPRPRPHHNPRP | -0.817
72 | RRIRERPPRLPRPRPRPHIFPRP | 0.116
73 | RRIRERPPRLPRPRPRPHIKPRP | -0.932
74 | RRIRERPPRLPRPRPRPHKHPRP | -0.671
75 | RRIRERPPRLPRPRPRPHLAPRP | 0.101

Row | Sequence | shrunken log2 fold change
76 | RRIRERPPRLPRPRPRPHMKPRP | -0.286
77 | RRIRERPPRLPRPRPRPHMPPRP | -0.197
78 | RRIRERPPRLPRPRPRPHMVPRP | -0.174
79 | RRIRERPPRLPRPRPRPHRLPRP | -0.18
80 | RRIRERPPRLPRPRPRPHTKPRP | 0.0349
81 | RRIRERPPRLPRPRPRPHTLPRP | -0.571
82 | RRIRERPPRLPRPRPRPHVKPRP | -0.767
83 | RRIRERPPRLPRPRPRPHWGPRP | 0.0212
84 | RRIRERPPRLPRPRPRPIAHPRP | -0.171
85 | RRIRERPPRLPRPRPRPIATPRP | 0.221
86 | RRIRERPPRLPRPRPRPIAWPRP | -0.199
87 | RRIRERPPRLPRPRPRPIDCPRP | -0.409
88 | RRIRERPPRLPRPRPRPIDHPRP | -0.379
89 | RRIRERPPRLPRPRPRPIEQPRP | -0.00133
90 | RRIRERPPRLPRPRPRPIFEPRP | 0.0601
91 | RRIRERPPRLPRPRPRPIHDPRP | 0.0116
92 | RRIRERPPRLPRPRPRPIHHPRP | -0.7
93 | RRIRERPPRLPRPRPRPIIMPRP | -0.119
94 | RRIRERPPRLPRPRPRPIKCPRP | -0.0487
95 | RRIRERPPRLPRPRPRPIKRPRP | -0.171
96 | RRIRERPPRLPRPRPRPIMCPRP | -0.275
97 | RRIRERPPRLPRPRPRPIMQPRP | -0.164
98 | RRIRERPPRLPRPRPRPIMSPRP | -0.38
99 | RRIRERPPRLPRPRPRPIPHPRP | -0.19
100 | RRIRERPPRLPRPRPRPIPLPRP | -0.275

Row | Sequence | shrunken log2 fold change
101 | RRIRERPPRLPRPRPRPIPMPRP | -0.136
102 | RRIRERPPRLPRPRPRPIPQPRP | 0.13
103 | RRIRERPPRLPRPRPRPIPRPRP | -0.138
104 | RRIRERPPRLPRPRPRPIQPPRP | 0.0319
105 | RRIRERPPRLPRPRPRPIRDPRP | 0.0201
106 | RRIRERPPRLPRPRPRPISSPRP | -0.403
107 | RRIRERPPRLPRPRPRPITMPRP | -0.408
108 | RRIRERPPRLPRPRPRPIVNPRP | -0.0349
109 | RRIRERPPRLPRPRPRPIWSPRP | 0.0428
110 | RRIRERPPRLPRPRPRPIYSPRP | -0.413
111 | RRIRERPPRLPRPRPRPKAIPRP | -0.0487
112 | RRIRERPPRLPRPRPRPKDIPRP | 0.0209
113 | RRIRERPPRLPRPRPRPKEDPRP | 0.0193
114 | RRIRERPPRLPRPRPRPKEEPRP | -0.000921
115 | RRIRERPPRLPRPRPRPKEGPRP | -0.129
116 | RRIRERPPRLPRPRPRPKFFPRP | -0.0207
117 | RRIRERPPRLPRPRPRPKGVPRP | 0.723
118 | RRIRERPPRLPRPRPRPKGWPRP | 0.493
119 | RRIRERPPRLPRPRPRPKHKPRP | -0.344
120 | RRIRERPPRLPRPRPRPKIRPRP | -0.121
121 | RRIRERPPRLPRPRPRPKIVPRP | -0.0778
122 | RRIRERPPRLPRPRPRPKKCPRP | -0.0779
123 | RRIRERPPRLPRPRPRPKKNPRP | -0.0468
124 | RRIRERPPRLPRPRPRPKLQPRP | 0.00297
125 | RRIRERPPRLPRPRPRPKLWPRP | 0.582

Row | Sequence | shrunken log2 fold change
126 | RRIRERPPRLPRPRPRPKMGPRP | 0.00452
127 | RRIRERPPRLPRPRPRPKMNPRP | -0.642
128 | RRIRERPPRLPRPRPRPKNGPRP | -0.0133
129 | RRIRERPPRLPRPRPRPKNIPRP | -0.723
130 | RRIRERPPRLPRPRPRPKQEPRP | -0.127
131 | RRIRERPPRLPRPRPRPKTVPRP | -0.0153
132 | RRIRERPPRLPRPRPRPKYAPRP | 0.0159
133 | RRIRERPPRLPRPRPRPLCMPRP | -0.592
134 | RRIRERPPRLPRPRPRPLDDPRP | -0.234
135 | RRIRERPPRLPRPRPRPLEIPRP | 0.0282
136 | RRIRERPPRLPRPRPRPLFTPRP | -0.55
137 | RRIRERPPRLPRPRPRPLFYPRP | -0.513
138 | RRIRERPPRLPRPRPRPLGIPRP | -0.0554
139 | RRIRERPPRLPRPRPRPLGPPRP | 0.099
140 | RRIRERPPRLPRPRPRPLGWPRP | 0.335
141 | RRIRERPPRLPRPRPRPLIIPRP | -1
142 | RRIRERPPRLPRPRPRPLLLPRP | -0.305
143 | RRIRERPPRLPRPRPRPLLPPRP | -0.119
144 | RRIRERPPRLPRPRPRPLLSPRP | -0.206
145 | RRIRERPPRLPRPRPRPLMDPRP | -0.134
146 | RRIRERPPRLPRPRPRPLNTPRP | -1.11
147 | RRIRERPPRLPRPRPRPLQHPRP | 0.159
148 | RRIRERPPRLPRPRPRPLRSPRP | 0.474
149 | RRIRERPPRLPRPRPRPLSEPRP | 0.0884
150 | RRIRERPPRLPRPRPRPLSLPRP | -0.371
